In patent publication US20100143245A1:

Target: 4Ig-B7H3, the 4Ig domain isoform of the human B7-homolog 3 (human) (UniProt Q5ZPR3)
Assay: Immunoaffinity capture from LAN-1 lysate or membrane fraction on 8H9-protein G Sepharose, followed by Western blot

Chain of UniProt Q5ZPR3 (Q5ZPR3 29-534 limits assumed, form in doubt): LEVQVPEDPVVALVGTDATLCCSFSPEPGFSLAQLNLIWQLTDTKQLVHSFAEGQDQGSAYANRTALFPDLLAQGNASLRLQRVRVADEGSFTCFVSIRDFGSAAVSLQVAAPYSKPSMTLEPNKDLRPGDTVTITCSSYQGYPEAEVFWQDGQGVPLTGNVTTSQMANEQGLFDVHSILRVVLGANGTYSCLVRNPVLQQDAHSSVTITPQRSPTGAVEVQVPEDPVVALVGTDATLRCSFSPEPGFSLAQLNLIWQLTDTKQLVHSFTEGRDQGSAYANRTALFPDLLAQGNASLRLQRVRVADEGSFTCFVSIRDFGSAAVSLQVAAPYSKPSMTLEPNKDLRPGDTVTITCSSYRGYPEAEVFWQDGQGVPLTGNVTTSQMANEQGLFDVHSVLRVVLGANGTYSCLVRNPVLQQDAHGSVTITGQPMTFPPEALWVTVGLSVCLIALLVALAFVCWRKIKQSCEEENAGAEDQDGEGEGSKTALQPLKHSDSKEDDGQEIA

portion of 8H9 antigen bound to the Sepharose: > 50%
Substance: monoclonal antibody 8H9
